Assay results published in patent US20250263462A1 (US Dept. of Health and Human Services, published 2025).

Tests used:
Test in all cases: cell-based or functional assay
[1] = target: KRAS G12D 10-mer peptide … (SEQ ID NO: 2) presented by HLA-A11 on pulsed cells (human, UniProt A*11:01)
[2] = target: KRAS G12V 10-mer peptide … (SEQ ID NO: 33) presented by HLA-A11 on pulsed cells (human, UniProt A*11:01)
[3] = target: T1, WT KRAS 10-mer peptide (SEQ ID NO: 30) presented by HLA-A11 on pulsed cells (human, UniProt A*11:01)
[4] = target: HLA-A11 on COS7/A11 cells expressing the WT KRAS minigene (23-mer SEQ ID NO: 118) (human, UniProt A*11:01)
[5] = target: HLA-A11 on COS7/A11 cells expressing the KRAS G12D minigene (23-mer SEQ ID NO: 119) (human, UniProt A*11:01)
[6] = target: HLA-A11 on COS7/A11 cells expressing the KRAS G12V minigene (23-mer SEQ ID NO: 120) (human, UniProt A*11:01)
[7] = target: T1, WT KRAS 10-mer peptide (SEQ ID NO: 30) …; remark: listed apart in the source
[8] = target: KRAS G12D 9-mer peptide KRAS8-16 … (SEQ ID NO: 34) presented by HLA-A11 on pulsed cells (human, UniProt A*11:01)
[9] = target: WT KRAS 9-mer peptide (SEQ ID NO: 31) presented by HLA-A11 on pulsed cells (human, UniProt A*11:01)

B1: TRAV19*01 + TRBV4*01 TCR chain pair (TCR, V domains shown)
V domain 1: GQQVKQSSPSLTVQEGGILILNCDYENDMFDYFAWYKKYPDNSPTLLISVRSNVDKREDGRFTVFLNKSGKHFSLHITASQPEDTAVYLCAAGDSGGSNYKLTFGKGTLLTVTP
V domain 2: ETAVFQTPNYHVTQVGNEVSFNCKQTLGHDTMYWYKQDSKKLLKIMFSYNNKQLIVNETVPRRFSPQSSDKAHLNLRIKSVEPEDSAVYLCASSRDWGPAEQFFGPGTRLTVLE
IFN-γ, PBL + pulsed Cos7/A11 [1]: 30 pg/mL | IFN-γ, PBL + pulsed Cos7/A11 [2]: 27 pg/mL | IFN-γ, PBL + pulsed Cos7/A11 [3]: 30 pg/mL | IFN-γ, PBL + Cos7/A11 minigene transfectant [4]: 32 pg/mL | IFN-γ, PBL + Cos7/A11 minigene transfectant [5]: 27 pg/mL | IFN-γ, PBL + Cos7/A11 minigene transfectant [6]: 30 pg/mL

B2: TRAV3-3*01 + TRBV13-1*02 TCR chain pair (TCR, V domains shown)
V domain 1: GEQVEQRPPHLSVREGDSAVITCTYTDPNSYYFFWYKQEPGASLQLLMKVFSSTEINEGQGFTVLLNKKDKRLSLNLTAAHPGDSAAYFCAVSGGTNSAGNKLTFGIGTRVLVRP
V domain 2: EAAVTQSPRNKVTVTGGNVTLSCRQTNSHNYMYWYRQDTGHGLRLIHYSYGAGNLQIGDVPDGYKATRTTQEDFFLLLELASPSQTSLYFCASASWGGYAEQFFGPGTRLTVLE
IFN-γ, PBL + pulsed Cos7/A11 [1]: 49 pg/mL | IFN-γ, PBL + pulsed Cos7/A11 [2]: 44 pg/mL | IFN-γ, PBL + pulsed Cos7/A11 [3]: 47 pg/mL | IFN-γ, PBL + Cos7/A11 minigene transfectant [4]: 51 pg/mL | IFN-γ, PBL + Cos7/A11 minigene transfectant [5]: 56 pg/mL | IFN-γ, PBL + Cos7/A11 minigene transfectant [6]: 61 pg/mL

B3: TRAV4-4/DV10*01/BV12-2*01 murine anti-KRAS G12D TCR (SEQ ID NOs: 157 and 158) (TCR, V domains shown)
V domain 1: GDQVEQSPSALSLHEGTDSALRCNFTTTMRSVQWFRQNSRGSLISLFYLASGTKENGRLKSAFDSKERRYSTLHIRDAQLEDSGTYFCAADSSNTGYQNFYFGKGTSLTVIP
V domain 2: NSGVVQSPRYIIKGKGERSILKCIPISGHLSVAWYQQTQGQELKFFIQHYDKMERDKGNLPSRFSVQQFDDYHSEMNMSALELEDSAVYFCASSLTDPLDSDYTFGSGTRLLVIE
IFN-γ, PBL + Cos7/A11 pulsed at 10^-6 M [7]: 56 pg/mL | IFN-γ, PBL + Cos7/A11 pulsed at 10^-7 M [7]: 57 pg/mL | IFN-γ, PBL + Cos7/A11 pulsed at 10^-8 M [7]: 51 pg/mL | IFN-γ, PBL + Cos7/A11 pulsed at 10^-9 M [7]: 51 pg/mL | IFN-γ, PBL + Cos7/A11 pulsed at 10^-10 M [7]: 54 pg/mL | IFN-γ, PBL + Cos7/A11 pulsed at 10^-11 M [7]: 50 pg/mL | IFN-γ, PBL + Cos7/A11 pulsed at 10^-12 M [7]: 44 pg/mL | IFN-γ, PBL + Cos7/A11 pulsed at 10^-13 M [7]: 54 pg/mL | IFN-γ, PBL + Cos7/A11 pulsed at 10^-6 M [8]: 131 pg/mL | IFN-γ, PBL + Cos7/A11 pulsed at 10^-7 M [8]: 60 pg/mL | IFN-γ, PBL + Cos7/A11 pulsed at 10^-8 M [8]: 47 pg/mL | IFN-γ, PBL + Cos7/A11 pulsed at 10^-9 M [8]: 53 pg/mL | IFN-γ, PBL + Cos7/A11 pulsed at 10^-10 M [8]: 53 pg/mL | IFN-γ, PBL + Cos7/A11 pulsed at 10^-11 M [8]: 52 pg/mL | IFN-γ, PBL + Cos7/A11 pulsed at 10^-12 M [8]: 58 pg/mL | IFN-γ, PBL + Cos7/A11 pulsed at 10^-13 M [8]: 51 pg/mL | IFN-γ, PBL + Cos7/A11 pulsed at 10^-6 M [9]: 54 pg/mL | IFN-γ, PBL + Cos7/A11 pulsed at 10^-7 M [9]: 53 pg/mL | IFN-γ, PBL + Cos7/A11 pulsed at 10^-8 M [9]: 59 pg/mL | IFN-γ, PBL + Cos7/A11 pulsed at 10^-9 M [9]: 54 pg/mL | IFN-γ, PBL + Cos7/A11 pulsed at 10^-10 M [9]: 51 pg/mL | IFN-γ, PBL + Cos7/A11 pulsed at 10^-11 M [9]: 48 pg/mL | IFN-γ, PBL + Cos7/A11 pulsed at 10^-12 M [9]: 52 pg/mL | IFN-γ, PBL + Cos7/A11 pulsed at 10^-13 M [9]: 51 pg/mL
